Data from patent US20240207418A1 (PROFOUNDBIO US, published 2024).

Legend:
[1] = target: T1, rat FOLR1 extracellular domain linked to His tag (rat, UniProt G3V8M6 25-232); experiment: BLI, Ag 125 nM; * below range of quantification
T1 construct: BLI analyte; also called Rat-Ag

[2] = target: T2, mouse FOLR1 extracellular domain linked to His tag (mouse, UniProt P35846 25-232, limits assumed); experiment: BLI, Ag 125 nM; * below range of quantification
T2 construct: extracellular domain; BLI analyte; also called Mouse-Ag; not shown: His tag

[3] = target: T1, rat FOLR1 extracellular domain linked …; experiment: BLI, Ag 15.6 nM; * below range of quantification
[4] = target: T2, mouse FOLR1 extracellular domain linked …; experiment: BLI, Ag 15.6 nM; * below range of quantification
[5] = target: T1, rat FOLR1 extracellular domain linked …; experiment: BLI, Ag 31.3 nM; * below range of quantification
[6] = target: T2, mouse FOLR1 extracellular domain linked …; experiment: BLI, Ag 31.3 nM; * below range of quantification
[7] = target: T1, rat FOLR1 extracellular domain linked …; experiment: BLI, Ag 62.5 nM; * below range of quantification
[8] = target: T2, mouse FOLR1 extracellular domain linked …; experiment: BLI, Ag 62.5 nM; * below range of quantification
[9] = target: T1, rat FOLR1 extracellular domain linked …; experiment: BLI, Ag 7.82 nM; * below range of quantification
[10] = target: T2, mouse FOLR1 extracellular domain linked …; experiment: BLI, Ag 7.82 nM; * below range of quantification
[11] = target: T3, human FOLR3 extracellular domain linked to His tag (human, UniProt P41439 23-245, limits assumed); experiment: BLI, global 1:1 fit; all responses below quantification range
T3 construct: extracellular domain; BLI analyte; also called Hu-FRg; not shown: His tag

[12] = target: T1, rat FOLR1 extracellular domain linked …; experiment: as above
[13] = target: T4, human FOLR1 protein, His tag (ACRO-FO1-H52H1) (human, UniProt P15328 25-233); experiment: ELISA, supernatant diluted 25x
T4 construct: Bought recombinant protein used for panning and for coating ELISA plates; not shown: His tag
T4 sequence (P15328 25-233 limits assumed): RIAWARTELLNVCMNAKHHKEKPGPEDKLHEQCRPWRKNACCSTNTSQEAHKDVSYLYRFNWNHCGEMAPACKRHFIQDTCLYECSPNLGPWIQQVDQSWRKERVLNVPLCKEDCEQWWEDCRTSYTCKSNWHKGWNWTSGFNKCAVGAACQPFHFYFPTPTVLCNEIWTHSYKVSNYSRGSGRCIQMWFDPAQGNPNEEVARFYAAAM

T1 sequence (G3V8M6 entry or part of it limits assumed): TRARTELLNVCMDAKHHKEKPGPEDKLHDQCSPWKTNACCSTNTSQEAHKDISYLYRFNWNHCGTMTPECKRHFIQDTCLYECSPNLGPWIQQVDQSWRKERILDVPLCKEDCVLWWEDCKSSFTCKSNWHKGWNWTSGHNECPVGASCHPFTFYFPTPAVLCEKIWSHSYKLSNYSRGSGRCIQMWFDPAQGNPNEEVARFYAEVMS
T2 sequence (P35846 25-232 limits assumed): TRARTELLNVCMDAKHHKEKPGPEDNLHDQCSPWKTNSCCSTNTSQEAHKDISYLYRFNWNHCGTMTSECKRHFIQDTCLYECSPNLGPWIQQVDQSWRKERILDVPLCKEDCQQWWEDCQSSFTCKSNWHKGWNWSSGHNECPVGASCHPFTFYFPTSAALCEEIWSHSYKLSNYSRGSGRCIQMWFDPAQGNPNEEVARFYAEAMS
T3 sequence (P41439 23-245 limits assumed): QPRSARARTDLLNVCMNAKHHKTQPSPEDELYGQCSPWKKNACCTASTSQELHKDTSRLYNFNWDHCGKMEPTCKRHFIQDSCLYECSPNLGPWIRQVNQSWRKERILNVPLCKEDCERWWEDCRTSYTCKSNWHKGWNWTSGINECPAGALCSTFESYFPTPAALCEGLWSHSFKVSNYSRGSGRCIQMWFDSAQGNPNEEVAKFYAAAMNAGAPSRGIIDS

| Binder | Response [1] | Response [2] | Response [3] | Response [4] | Response [5] | Response [6] | Response [7] | Response [8] | Response [9] | Response [10] | Kd [11] | Kd [12] | koff [12] | kon [12] | OD450 [13] |
| --- | --- | --- | --- | --- | --- | --- | --- | --- | --- | --- | --- | --- | --- | --- | --- |
| anti-huFOLR-1 conjugate F131-LD038 (antibody, V domains shown, drug-linker LD038 coupled to cysteine thiols after TCEP reduction; positions not given; drug-linker LD038 (PB038; PEG unit, Val-Cit-PAB cleavable linker, exatecan) coupled by maleimide to cysteine thiols after TCEP reduction; DAR 7.6 by LC-MS; positions not given, also called F131-038; PA038 conjugate of F131) VH: EVQLLESGGGVVQPGRSLRLSCAASGFTFSSYGMHWVRQAPGKGLEWVAVISYDGSNKYYADSVKGRFTISRANSKNTLYLQMNSLRAEDTAVYYCARPRAYYGAYGSSFDYWGQGTQVTVSS VL: EIVMTQSPSSVSASVGDRVAITCRASQGISSWLAWYQQKPGKAPKLLIYAASSLQSGVPSRFSGSGSGTDFTLTISSLQPEDFATYYCQQSYSTPLTFGGGTKVDIK | 0.0007 | 0.0008 | -0.00212 | -0.00324 | -0.00454 | -0.00132 | -0.00393 | -0.000242 | -0.00438 | -0.00483 | 0.0328 nM | 84.8 nM | 0.224 s⁻¹ | 2.64e+06 M⁻¹ s⁻¹ | – |
| anti-FOLR1 antibody F131 (antibody, V domains shown, Tested as full-length IgG with an IgG1 Fc (HEK293 supernatant and purified; later ExpiCHO-S); also called F131 mAb; F131 Ab) VH: EVQLLESGGGVVQPGRSLRLSCAASGFTFSSYGMHWVRQAPGKGLEWVAVISYDGSNKYYADSVKGRFTISRANSKNTLYLQMNSLRAEDTAVYYCARPRAYYGAYGSSFDYWGQGTQVTVSS VL: EIVMTQSPSSVSASVGDRVAITCRASQGISSWLAWYQQKPGKAPKLLIYAASSLQSGVPSRFSGSGSGTDFTLTISSLQPEDFATYYCQQSYSTPLTFGGGTKVDIK | -0.00477 | -0.000579 | -0.00395 | -0.0051 | -0.00532 | -0.00251 | -0.00606 | -0.00178 | -0.00563 | 0.0027 | – | – | 1.03 s⁻¹ | 5490 M⁻¹ s⁻¹ | – |
| anti-FOLR1 antibody F138 (antibody, V domains shown, Tested as full-length IgG with an IgG1 Fc, expressed in HEK293 (transfection supernatant); also called clone F138) VH: EVQLLESGGGVVQPGRSLRLSCAASGFTFSSYGMHWVRQAPGKGLEWVAVISYDGSNKYYADSVKGRFTISTHNSKNTLYLQMNSLRAEDTAVYYCARPRAYYGAYGSSFDYWGQGTQVTVSS VL: EIVMTQSPSSVSASVGDRVAITCRASQGISSWLAWYQQKPGKAPKLLIYAASSLQSGVPSRFSGSGSGTDFTLTISSLQPEDFATYYCQQSYSTPLTFGGGTKVDIK | – | – | – | – | – | – | – | – | – | – | – | – | – | – | 0.827 OD450 |
